For one assay, the system named is Steinernema feltiae. Put plainly: In-vitro plate assay of Steinernema feltiae juvenile death after direct treatment. Type of assay: in vivo. The note with it: Table 23, 40 μL per well (ILEVO 20 μL), water control 3%. As to the method:
To determine the effects of enzymes on an additional soil-dwelling nematode species (Steinernema feltiae), a NemAttack™ package containing approximately 5 million S. feltiae juveniles was purchased from ARBICO Organics. The nematodes arrived already hatched and dispersed within a powder. To prepare the nematodes for use, an aliquot of the dry nematode mixture was rehydrated in water. The liquid nematode mixture was adjusted to a concentration of 20-30 nematode juveniles per 10 μL. The free enzymes Esterase B (SEQ ID NO: 89) and Chitinase 19F (SEQ ID NO: 182) were produced as described in Example 2.
Potato dextrose agar media containing chloramphenicol and chlortetracycline was prepared and added to sterile twenty-four-well cell culture plates (1 mL per well). The plates were divided according to the pre-determined N-value for each treatment (N=12-24). […]
To quantify the treatments' effects on nematode viability, the nematodes were examined under a dissecting microscope at 20× magnification. Initial (T0) values for the number of live juveniles, number of dead juveniles and total number of juveniles were recorded immediately after preparation of each well. […] Approximately 20-22 hours post addition of juveniles, the plates were evaluated, and the number of live juveniles, dead juveniles and total number of juveniles were recorded. […]

Assay [1] has as its system Diamondback moth (Plutella xylostella). Put plainly: Diet-surface overlay (DSO) bioassay on Diamondback moth. It is filed as in vivo. As to the method:
(§1) Diet-surface overlay bioassays are conducted with artificial diet mixes without antibiotics in 1.5 cm^2 cell bioassay trays(s). Artificial diets are commercially available from Southland Products Inc. Diets were prepared by dispersing 0.5 mL of molten diet to each 1.5 cm^2 cell. After solidification, 0.1 mL enzyme treatments were dispersed on top of diet in each cell and the tray was gently rocked in an orbital shaker to spread the liquid uniformly over the diet surface. Trays were placed under clean airflow until the surface of each cell was uniformly dried. One or two 16-cell sections were used per treatment (the number in larvae treated was 16 or 32).
(§2) One healthy first instar larva was placed into each treatment cell, each 16-cell section was covered with a re-sealable lid and incubated at 27° C. and light-dark period of 16:8 hrs. After 7 days, and according to the species, the number of individuals in the following developmental categories was recorded.
(§3) Diamondback moth (Plutella xylostella): Dead Larva (lack of movement), Larva Stage I (≤50% relative size), Larva Stage II (100% relative size, full size), Early Pupa (light green color), Late Pupa (light-dark brown color), and Adult.
(§4) Negative/untreated controls were treated with filtered water and positive controls were treated with lethal doses of Bacillus thuringiensis subsp. Kurstaki (Btk) spores at 1000 ppm.

The next assay has as its system SCN nematodes. Put plainly: Nematode death after foliar spray application on strawberry leaf segments. Type of assay: in vivo, Heterodera glycines. The note with it: 0.6% solution of fermentation broth sprayed on strawberry leaf segments; 20 wells; water only 5%. As to the method: To determine whether a nematicidal enzyme can cause nematode death when sprayed as a foliar treatment, a trial was performed using chitinase 19F (SEQ ID NO: 182). The free enzyme was produced as described in Example 2. A SCN hatchery was set up as described in Example 2, except that no bleach sterilization step was performed. Six days later, the concentration of hatched nematodes was determined. Leaves from Quinault strawberry plants (Fragaria x ananassa) were cut into square sections and placed in the wells of a 24-well plate with the abaxial side up. […] Spray solutions were created with water alone and water plus fermentation broth with chitinase 19F (SEQ ID NO: 182). For the base strain control and chitinase solutions, 0.094 mL of fermentation broth was added to 15 mL of water (0.6% solution) to model a field spray application of 8 fl oz. per acre. Treatments were added to a small spray bottle and each leaf segment was sprayed approximately 3 times. After the leaves had dried, approximately 100 nematodes were added to each leaf segment. To assess the number of nematodes that were alive at the start of the experiment hours, 500 μL of sterile water was added to 4 wells of each treatment, and the leaf segment was washed and removed. The number of alive and dead nematodes were counted for each well, and the average percentage of dead nematodes were calculated for each treatment. […]

Assay [2] relates to Btk resistant Diamondback moth. Put plainly: Diet-surface overlay (DSO) bioassay on Btk resistant Diamondback moth. It is filed as in vivo, Plutella xylostella. The note with it: number of individuals, n = 32, 7 days. As to the method: as §1, §2, §3, §4
However, both neutral proteases reduced the number of individuals reaching adult stage.
The effect of lipase (10× enzyme rate) and free lipases were tested on a Diamondback Moth Btk resistant strain. Free Lipases from Burkholderia cepacia (Bc) and Pseudomonas fluorescens (Pf) were tested along with Lipase (SEQ ID NO: 76) and the results are shown below in Table 45.

Setting [3] is: Table 49, esterases, Diamondback moth, number of individuals of n = 32.

B1: Esterase B (SEQ ID NO: 89): Bacillus subtilis Esterase (EstB without signal sequence) (protein, listed as Bacillus subtilis)
chain: ESVHNPVVLVHGISGASYNFFAIKNYLISQGWQSNKLYAIDFYDKTGNNLNNGPQLASYVDRVLKETGAKKVDIVAHSMGGANTLYYIKYLGGGNKIQNVVTLGGANGLVSSTALPGTDPNQKILYTSIYSLNDQIVINSLSRLQGARNIQLYGIGHIGLLSNSQVNGYIKEGLNGGGLNTN
modifications: Esterase (EstB H191 without signal sequence)
Regarding B1, in the assay on Steinernema feltiae, the “Difference in Percent Death of Nematodes for 0 to 20 Hours” value was “significantly increased the difference in percentage of S. feltiae juveniles that died”. Moreover, in the assay on Steinernema feltiae (listed as Esterase B(SEQ ID NO: 89)), the “Difference in Percent Death of Nematodes for 0 to 20 Hours” value stood at 33%. In assay [1] (setting [3]), the Adult is 0, the “Early Pupa” value is 4, the “Larva Stage I” value stood at 3 and the “Larva Stage II” value stood at 8. Moreover, the “Late Pupa” value in assay [1] (setting [3]) is given as 17. In addition, the “Dead Larva” value in assay [1] (Table 49, esterases, Diamondback moth, number of individuals of n = 32, DSO bioassay, dose per treatment in U/mL Diet) was found to be 0. Moreover, in assay [1] (text to Table 49, esterases, n = 32), the “individuals with delayed larva-pupa development” value is recorded as 47%. Moreover, the “individuals at larva stage” value in assay [1] (text to Table 49: 34% of which were at larva stage) stood at 34%.

B2: Chitinase 19F (SEQ ID NO: 182): Streptomyces coelicolor Chitinase F (Chi19F) (protein)
chain: ASCSSYHAWSADANYNTGDIVRYTDGKAYIAEHANPGYDPLISTWYWDPYACDGGSQTPVGNFVVSEAQFNQMFPGRNSFYTYSGLTAALSAYPGFANTGSDTTKKQEAAAFLANVSHETGGLVYIVEQNTANYPHYCDWNQPYGCPAGQAAYYGRGPIQLSWNFNYKAAGDALGIDLLGNPWLVQNDAAVAWKTGLWYWNTQSGPGTMTPHNAMVNGAGFGQTIRSINGSLECDGKNPAQVQSRVTKYQQFAQILGVSPGGNLYC
modifications: Chitinase F (Chi19F); Streptomyces coelicolor
B2: the “Average percentage of dead nematodes at 24 hours” value with SCN nematodes is recorded as “increased significantly above the control treatments”. Besides, the “Dead Larva” value in assay [2] (Table 47, chitinases, rate in mU/mL diet column) is 2. Also, in assay [2] (Table 47), the Adult stood at 1, the “Early Pupa” value amounted to 4, the “Larva Stage I” value stood at 2 and the “Larva Stage II” value is 1. Also, the “Late Pupa” value in assay [2] (Table 47) is listed as 22.

Values taken from patent US20260231954A1, “PESTICIDAL ENZYMES FOR USE ON NEMATODES, INSECTS, AND MOLLUSKS” (priority 2023, published 2026).
